From the PETadex activity labels (doi:10.1021/acsomega.4c04843)

B1: unnamed (protein)
chain: MFRFHIVSALLTLFIAVPSQAHDVGQREIKISGAEPGRNLEVSVWYPAAIDGKATLIGDNIIFKGAPAVIDATPEKGSFPLLVMSHGSGGRAQGMAWLATELVKAGIIVAAPNHPGTTSGDSTPQDTPKIWQRTGDLSAVIDTMTTDPAWSGIIDKNKISVLGFSLGGAAAMEIAGARANLEAYARYCDTYGKWDCAWYAGGIGYRDDKQIKVDKVDLRSVDKSRFEQSNLDRRIASAIMIDPGLAQAYDAQSLASISIPMSFINLGEVETIPTGVVADKLASITPQGTYVTVAGATHFSFLPECKKGAADRLKSAGEVDPICSDDARRPRADIHADITKLVLKALQSMPKT
B2: unnamed (protein)
chain: MFRFHIVSALLTLFIAVPSQAHDVGQREIKISGAEPGRNLEVSVWYPAAIDGKATLIGDNIIFKGAPAVIDATPEKGSFPLLVMSHGSGGRAQGMAWLATELVKAGIIVAAPNHPGTTSGDSTPQDTPKIWQRTGDLSAVIDTMTTDPAWSGIIDKNKISVLGFSMGGAAAMEIAGARANLEAYARYCDTYGKWDCAWYAGGIGYRDDKQIKVDKVDLRSVDKSRFEQSNLDRRIASAIMIDPGLAQAYDAQSLASISIPMSFINLGEVETIPTGVVADKLASITPQGTYVTVAGATHWSFLPECKKGAADRLKSAGEVDPICSDDARRPRADIHADITKLVLKALQSMPKT
B3: unnamed (protein)
chain: MFRFHIVSALLTLFIAVPSQAHDVGQREIKISGAEPGRNLEVSVWYPAAIDGKATLIGDNIIFKGAPAVIDATPEKGSFPLLVMSHGSGGRAQGMAWLATELVKAGIIVAAPNHPGTTSGDSTPQDTPKIWQRTGDLSAVIDTMTTDPAWSGIIDKNKISVLGFSMGGAAAMEIAGARANLEAYARYCDTYGKWDCAWYAGGIGYRDDKQIKVDKVDLRSVDKSRFEQSNLDRRIASAIMIDPGLAQAYDAQSLASISIPMSFINLGEVETIPTGVVADKLASITPQGTYVTVAGATHISFLPECKKGAADRLKSAGEVDPICSDDARRPRADIHADITKLVLKALQSMPKT
B4: unnamed (protein)
chain: MFRFHIVSALLTLFIAVPSQAHDVGQREIKISGAEPGRNLEVSVWYPAAIDGKATLIGDNIIFKGAPAVIDATPEKGSFPLLVMSHGSGGRAQGMAWLATELVKAGIIVAAPNHPGTTSGDSTPQDTPKIWQRTGDLSAVIDTMTTDPAWSGIIDKNKISVLGFSMGGAAAMEIAGARANLEAYARYCDTYGKWDCAWYAGGIGYRDDKQIKVDKVDLRSVDKSRFEQSNLDRRIASAIMIDPGLAQAYDAQSLASISIPMSFINLGEVETIPTGVVADKLASITPQGTYVTVDGATHFSFLPECKKGAADRLKSAGEVDPICSDDARRPRADIHADITKLVLKALQSMPKT
B5: unnamed (protein)
chain: MSNPYQRGPNPTRSALTADGPFSVATYTVSRLSVSGFGGGVIYYPTGTSLTFGGIAMSPGYTADASSLAWLGRRLASHGFVVLVINTNSRFDGPDSRASQLSAALNYLRTSSPSAVRARLDANRLAVAGHSMGGGGTLRIAEQNPSLKAAVPLTPWHTDKTFNTSVPVLIVGAEADTVAPVSQHAIPFYQNLPSTTPKVYVELCNASHIAPNSNNAAISVYTISWMKLWVDNDTRYRQFLCNVNDPALCDFRTNNRHCQLEHHHHHH
B6: unnamed (protein)
chain: MMGYITAHDGTNLYVEDVGFGEPIVFLHGWPANNNMFEYQKNALVEAGYRYIGIDFRGYGKSDAPATGYDYETMASDVHMVVYGLGLKNFTLVGFSMGGAIAVRYAADYKEDGLNKLVLAGAAAPIFTQRADYPYGMTTDEVDALIDDTRADRPKMLEGFGEIFFEKEHSKPMQNWFHHLALVASSHGTIASAQALRDEDLRDALPKIDVETLIIHGVHDKICPFAFAEQMEQGISNARIERFEESGHGTVLDEREKFNDTLLQFVQ

Substrate: pNPB
Test: Proxy for plastic degradation [p-nitrophenol (pNP) release]
Conditions: pH 7.4; 37 °C

Protein	Proxy for plastic degradation
B1	255 U/mL
B6	245 U/mL

Same assay, conditions: pH 7.4; 42 °C

Protein	Proxy for plastic degradation
B1	330 U/mL
B6	300 U/mL

Substrate: PET
Test: Proxy for plastic degradation [Released monomer concentration (HPLC/LC-MS) (TPA)]
Conditions: pH 8

Protein	Proxy for plastic degradation
B1	0.8 mM/mg
B2	2.3 mM/mg
B3	1.5 mM/mg
B4	2.6 mM/mg
B5	3 mM/mg
B6	3.7 mM/mg
